Assay results as given in patent publication US20060183664A1, “Pharmaceutical composition for delayed hypersensitivity” (priority 2001, published 2006).

Biological target: T1, PAR-2 (Homo sapiens, UniProt P55085)
T1 construct: expressed in transfected cells; host or cells: NCTC2544 cells
T1 sequence (P55085 26-397): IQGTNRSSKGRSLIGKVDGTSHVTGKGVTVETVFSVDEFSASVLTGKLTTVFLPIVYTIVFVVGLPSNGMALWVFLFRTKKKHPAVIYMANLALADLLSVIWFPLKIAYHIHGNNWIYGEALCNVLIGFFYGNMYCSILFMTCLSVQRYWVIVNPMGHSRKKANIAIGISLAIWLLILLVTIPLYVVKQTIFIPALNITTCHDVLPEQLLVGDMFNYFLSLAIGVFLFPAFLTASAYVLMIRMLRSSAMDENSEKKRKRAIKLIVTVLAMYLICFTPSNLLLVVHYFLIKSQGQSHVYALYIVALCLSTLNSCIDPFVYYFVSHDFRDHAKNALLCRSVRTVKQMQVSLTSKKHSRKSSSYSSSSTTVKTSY
Test: Assay of PAR-2 activation using inositol phosphates as an indicator in NCTC2544 cells with stably high expression of PAR-2
Format: cell-based
Conditions: subject substance added 15 min before stimulation
Text: The invention also provides a novel method for measuring PAR-2 activity. PAR-2 belongs to G-protein-coupled receptor (GPCR) family, and produces inositol phosphates as a second messenger upon activation of the receptor. Based on this mechanism, the effects of subject substances in activation of PAR-2 can be determined quantitatively by quantifying produced inositol phosphates in PAR2-expressing cells by an ion chromatography or the like.
NCTC2544 cells with stably high expression of PAR-2 were cultured in the serum-free medium containing […]/ml of [^3H]-myo-inositol for 18 hours. Lithium chloride (final […]) was added 30 min before the stimulation, and subsequently cells were stimulated with trypsin (1 to 30 nM) or the PAR-2 agonist peptide, SLIGKV (10 to 300 μM). After 45 min the lipid component was extracted with methanol and separated using an anion exchanging resin (AG1-X, formate form). Then the yield of inositol phosphates was determined in a scintillation counter. The subject substance was added 15 min before the stimulation.

- SLIGKV-mediated activation of PAR-2 (inositol phosphate production) (stimulation with PAR-2 activating peptide SLIGKV): not affected
- Trypsin-mediated activation of PAR-2 (inositol phosphate production) (stimulation with trypsin): inhibited
B1: trypsin inhibitor derived from soybeans: a trypsin inhibitor derived from soybeans, used as subject substance in the PAR-2 inositol phosphate assay (protein, UniProt P01070 25-205, looked up)
Trypsin inhibitor A: DFVLDNEGNPLENGGTYYILSDITAFGGIRAAPTGNERCPLTVVQSRNELDKGIGTIISSPYRIRFIAEGHPLSLKFDSFAVIMLCVGIPTEWSVVEDLPEGPAVKIGENKDAMDGWFRLERVSDDEFNNYKLVFCPQQAEDDKCGDIGISIDHDDGTRRLVVSKNKPLVVQFQKLDKESL
